Experimental data reported in publication PMC9482650, “Quantitative fragmentomics allow affinity mapping of interactomes” (Nature Communications, 2022).

T1: NHERF3_1, Q5T2W1
T1 sequence (Q5T2W1 4-100, limits assumed, looked up): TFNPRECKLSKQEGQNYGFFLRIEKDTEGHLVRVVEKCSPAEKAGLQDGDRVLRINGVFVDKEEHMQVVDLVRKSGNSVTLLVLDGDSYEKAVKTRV

T2: MPDZ_5, O75970
T2 sequence (O75970 695-796, limits assumed, looked up): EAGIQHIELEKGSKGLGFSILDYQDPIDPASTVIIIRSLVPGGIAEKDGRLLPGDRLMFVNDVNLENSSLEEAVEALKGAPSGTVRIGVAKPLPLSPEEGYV

T3: LIN7A, O14910
T3 sequence (O14910 103-200, limits assumed, looked up): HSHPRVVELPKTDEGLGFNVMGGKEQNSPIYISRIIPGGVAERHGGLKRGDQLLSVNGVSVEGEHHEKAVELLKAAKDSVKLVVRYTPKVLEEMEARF

T4: PARD3B_1, Q8TEW8
T4 sequence (Q8TEW8 196-299, limits assumed, looked up): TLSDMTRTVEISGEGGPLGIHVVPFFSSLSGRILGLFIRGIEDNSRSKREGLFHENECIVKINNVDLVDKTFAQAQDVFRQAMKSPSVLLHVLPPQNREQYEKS

T5: DFNB31_1, Q9P202
T5 sequence (Q9P202 135-233, limits assumed, looked up): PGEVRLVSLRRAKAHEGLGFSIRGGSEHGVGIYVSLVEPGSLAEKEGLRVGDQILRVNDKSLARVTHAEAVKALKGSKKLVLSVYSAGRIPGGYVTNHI

T6: DLG3_1, Q92796
T6 sequence (Q92796 125-227, limits assumed, looked up): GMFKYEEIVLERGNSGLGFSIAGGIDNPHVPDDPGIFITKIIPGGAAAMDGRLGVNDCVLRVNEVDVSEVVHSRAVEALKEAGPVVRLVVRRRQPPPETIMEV

T7: RADIL, Q96JH8
T7 sequence (Q96JH8 971-1071, limits assumed, looked up): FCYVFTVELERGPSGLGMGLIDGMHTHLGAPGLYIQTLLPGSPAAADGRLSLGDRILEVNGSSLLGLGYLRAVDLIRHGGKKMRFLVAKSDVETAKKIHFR

T8: MPDZ_10, O75970
T8 sequence (O75970 1624-1722, limits assumed, looked up): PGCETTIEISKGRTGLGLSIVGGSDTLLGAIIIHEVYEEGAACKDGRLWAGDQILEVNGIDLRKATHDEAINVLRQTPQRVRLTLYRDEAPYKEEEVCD

T9: DFNB31_2, Q9P202
T9 sequence (Q9P202 274-371, limits assumed, looked up): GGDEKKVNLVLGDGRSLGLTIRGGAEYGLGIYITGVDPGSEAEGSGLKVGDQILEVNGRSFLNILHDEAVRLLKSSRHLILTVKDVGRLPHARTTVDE

T10: FRMPD1, Q5SYB0
T10 sequence (Q5SYB0 52-145, limits assumed, looked up): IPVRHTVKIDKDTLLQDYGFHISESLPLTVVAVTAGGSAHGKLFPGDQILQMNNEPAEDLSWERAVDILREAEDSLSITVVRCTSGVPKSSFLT


Tests used:
Experiment in all cases: holdup assay
Parameters in all cases: key: below the threshold = too weak to quantify, mostly under pKd 3.1 to 4
Conditions in all cases: plain residues with an end cap or a label only (N-terminal biotin on a linker: ttds)
CASK, O14936 = biological target: CASK, O14936
Inadl_10, Q8NI35 = biological target: Inadl_10, Q8NI35
MAGI2_2, Q86UL8 = biological target: MAGI2_2, Q86UL8
GIPC2, Q8TF65 = biological target: GIPC2, Q8TF65
MAGI1_1, Q96QZ7 = biological target: MAGI1_1, Q96QZ7
NHERF3_1, Q5T2W1 = biological target: T1, NHERF3_1, Q5T2W1
GRID2IP_1, A4D2P6 = biological target: GRID2IP_1, A4D2P6
SCRIB_1, Q14160 = biological target: SCRIB_1, Q14160
MPDZ_5, O75970 = biological target: T2, MPDZ_5, O75970
Inadl_5, Q8NI35 = biological target: Inadl_5, Q8NI35
LIN7A, O14910 = biological target: T3, LIN7A, O14910
Inadl_1, Q8NI35 = biological target: Inadl_1, Q8NI35
MAGI2_3, Q86UL8 = biological target: MAGI2_3, Q86UL8
PARD3B_1, Q8TEW8 = biological target: T4, PARD3B_1, Q8TEW8
GRIP2_3, Q9C0E4 = biological target: GRIP2_3, Q9C0E4
DFNB31_1, Q9P202 = biological target: T5, DFNB31_1, Q9P202
FRMPD2_3, Q68DX3 = biological target: FRMPD2_3, Q68DX3
DLG3_1, Q92796 = biological target: T6, DLG3_1, Q92796
IL16_3, Q14005 = biological target: IL16_3, Q14005
PDLIM1, O00151 = biological target: PDLIM1, O00151
SCRIB_2, Q14160 = biological target: SCRIB_2, Q14160
RADIL, Q96JH8 = biological target: T7, RADIL, Q96JH8
TJP2_1, Q9UDY2 = biological target: TJP2_1, Q9UDY2
DLG2_3, Q15700 = biological target: DLG2_3, Q15700
GRASP, Q7Z6J2 = biological target: GRASP, Q7Z6J2
MPDZ_10, O75970 = biological target: T8, MPDZ_10, O75970
DFNB31_2, Q9P202 = biological target: T9, DFNB31_2, Q9P202
FRMPD1, Q5SYB0 = biological target: T10, FRMPD1, Q5SYB0

Sequence of SCRIB_1, Q14160 (Q14160 718-814): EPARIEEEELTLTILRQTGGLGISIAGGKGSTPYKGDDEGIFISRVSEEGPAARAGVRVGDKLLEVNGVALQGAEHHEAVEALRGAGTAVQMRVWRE
Sequence of GRID2IP_1, A4D2P6 (A4D2P6 1-87): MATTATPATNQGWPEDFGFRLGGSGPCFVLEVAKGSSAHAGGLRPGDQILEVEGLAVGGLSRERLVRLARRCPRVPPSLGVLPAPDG
Sequence of MAGI1_1, Q96QZ7 (Q96QZ7 1-106): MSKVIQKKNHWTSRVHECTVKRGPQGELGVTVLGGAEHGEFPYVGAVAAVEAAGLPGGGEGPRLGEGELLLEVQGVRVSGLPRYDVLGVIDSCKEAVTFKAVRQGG
Sequence of SCRIB_2, Q14160 (Q14160 857-960): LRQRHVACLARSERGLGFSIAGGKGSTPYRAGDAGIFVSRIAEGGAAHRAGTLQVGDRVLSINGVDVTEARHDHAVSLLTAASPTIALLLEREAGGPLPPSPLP
Sequence of TJP2_1, Q9UDY2 (Q9UDY2 24-128): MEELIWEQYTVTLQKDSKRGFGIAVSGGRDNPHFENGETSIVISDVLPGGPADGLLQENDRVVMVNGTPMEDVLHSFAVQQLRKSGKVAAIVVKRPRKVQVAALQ
Sequence of Inadl_1, Q8NI35 (Q8NI35 113-229): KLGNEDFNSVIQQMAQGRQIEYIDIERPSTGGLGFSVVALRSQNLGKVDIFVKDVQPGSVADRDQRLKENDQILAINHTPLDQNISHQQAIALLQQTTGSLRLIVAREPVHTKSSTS
Sequence of MAGI2_3, Q86UL8 (Q86UL8 600-682): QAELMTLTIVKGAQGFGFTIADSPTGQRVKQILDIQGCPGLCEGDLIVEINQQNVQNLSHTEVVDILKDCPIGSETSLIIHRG
Sequence of GRASP, Q7Z6J2 (Q7Z6J2 96-193): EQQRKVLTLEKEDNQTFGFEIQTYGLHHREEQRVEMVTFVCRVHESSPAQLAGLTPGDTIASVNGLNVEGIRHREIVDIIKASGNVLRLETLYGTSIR
Sequence of MAGI2_2, Q86UL8 (Q86UL8 410-522): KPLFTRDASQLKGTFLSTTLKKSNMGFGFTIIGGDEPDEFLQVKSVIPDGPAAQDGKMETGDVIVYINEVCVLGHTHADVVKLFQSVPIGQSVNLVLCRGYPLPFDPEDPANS
Sequence of IL16_3, Q14005 (Q14005 1107-1207): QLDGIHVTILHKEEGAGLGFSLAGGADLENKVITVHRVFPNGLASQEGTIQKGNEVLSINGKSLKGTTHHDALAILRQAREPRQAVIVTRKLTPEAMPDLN
Sequence of Inadl_10, Q8NI35 (Q8NI35 1673-1763): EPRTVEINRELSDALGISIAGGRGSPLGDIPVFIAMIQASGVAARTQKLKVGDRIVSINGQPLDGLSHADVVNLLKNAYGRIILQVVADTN
Sequence of FRMPD2_3, Q68DX3 (Q68DX3 1073-1166): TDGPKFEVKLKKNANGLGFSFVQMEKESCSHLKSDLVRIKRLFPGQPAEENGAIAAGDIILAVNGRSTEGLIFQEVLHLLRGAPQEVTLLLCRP
Sequence of GIPC2, Q8TF65 (Q8TF65 112-203): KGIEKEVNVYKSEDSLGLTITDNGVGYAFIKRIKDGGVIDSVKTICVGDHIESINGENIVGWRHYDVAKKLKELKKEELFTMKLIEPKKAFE
Sequence of GRIP2_3, Q9C0E4 (Q9C0E4 238-339): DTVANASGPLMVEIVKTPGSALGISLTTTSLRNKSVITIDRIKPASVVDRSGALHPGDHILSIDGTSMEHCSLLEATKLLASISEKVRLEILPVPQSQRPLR
Sequence of Inadl_5, Q8NI35 (Q8NI35 673-780): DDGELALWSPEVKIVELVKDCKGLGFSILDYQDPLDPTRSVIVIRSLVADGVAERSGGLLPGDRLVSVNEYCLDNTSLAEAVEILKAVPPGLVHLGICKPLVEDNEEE
Sequence of PDLIM1, O00151 (O00151 1-87): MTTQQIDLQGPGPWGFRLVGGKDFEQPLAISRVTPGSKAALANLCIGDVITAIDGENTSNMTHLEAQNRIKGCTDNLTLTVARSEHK
Sequence of CASK, O14936 (O14936 487-570): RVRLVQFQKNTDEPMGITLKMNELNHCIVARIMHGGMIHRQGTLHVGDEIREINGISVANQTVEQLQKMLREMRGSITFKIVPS

Binder	pKd (CASK, O14936)	pKd (Inadl_10, Q8NI35)	pKd (MAGI2_2, Q86UL8)	pKd (GIPC2, Q8TF65)	pKd (MAGI1_1, Q96QZ7)	pKd (NHERF3_1, Q5T2W1)	pKd (GRID2IP_1, A4D2P6)	pKd (SCRIB_1, Q14160)	pKd (MPDZ_5, O75970)	pKd (Inadl_5, Q8NI35)	pKd (LIN7A, O14910)	pKd (Inadl_1, Q8NI35)	pKd (MAGI2_3, Q86UL8)	pKd (PARD3B_1, Q8TEW8)	pKd (GRIP2_3, Q9C0E4)	pKd (DFNB31_1, Q9P202)	pKd (FRMPD2_3, Q68DX3)	pKd (DLG3_1, Q92796)	pKd (IL16_3, Q14005)	pKd (PDLIM1, O00151)	also measured
RRVRKLPSTTL [RPS6KA1, Q15418]	below the threshold	below the threshold	4.4	below the threshold	3.64	4.03	below the threshold	3.48	3.61	below the threshold	below the threshold	below the threshold	3.63	4.4	below the threshold	3.53	below the threshold	below the threshold	below the threshold	3.49	pKd (SCRIB_2, Q14160): below the threshold; pKd (RADIL, Q96JH8): 3.54; pKd (TJP2_1, Q9UDY2): below the threshold; pKd (DLG2_3, Q15700): 3.49; pKd (GRASP, Q7Z6J2): 4.17; pKd (MPDZ_10, O75970): 3.76; pKd (DFNB31_2, Q9P202): below the threshold; pKd (FRMPD1, Q5SYB0): below the threshold
TEEEVQDTRL [CFTR, P13569]	below the threshold	below the threshold	below the threshold	below the threshold	below the threshold	4.78	below the threshold	5.42	below the threshold	below the threshold	below the threshold	below the threshold	below the threshold	3.95	below the threshold	3.79	below the threshold	below the threshold	below the threshold	below the threshold	pKd (SCRIB_2, Q14160): below the threshold; pKd (RADIL, Q96JH8): below the threshold; pKd (TJP2_1, Q9UDY2): below the threshold; pKd (DLG2_3, Q15700): below the threshold; pKd (GRASP, Q7Z6J2): below the threshold; pKd (MPDZ_10, O75970): below the threshold; pKd (DFNB31_2, Q9P202): below the threshold; pKd (FRMPD1, Q5SYB0): below the threshold
NYWPGKETQL [SLCO1C1, Q9NYB5]	below the threshold	below the threshold	4.52	below the threshold	below the threshold	5.4	below the threshold	5.23	below the threshold	below the threshold	4.14	4.12	below the threshold	3.7	below the threshold	4.44	below the threshold	3.9	below the threshold	3.73	pKd (SCRIB_2, Q14160): 4.24; pKd (RADIL, Q96JH8): below the threshold; pKd (TJP2_1, Q9UDY2): below the threshold; pKd (DLG2_3, Q15700): 4.69; pKd (GRASP, Q7Z6J2): below the threshold; pKd (MPDZ_10, O75970): below the threshold; pKd (DFNB31_2, Q9P202): 4.36; pKd (FRMPD1, Q5SYB0): below the threshold
CNTVTVETVV [MAS1, P04201]	below the threshold	below the threshold	below the threshold	below the threshold	below the threshold	3.74	below the threshold	below the threshold	3.53	below the threshold	below the threshold	below the threshold	3.63	below the threshold	below the threshold	below the threshold	3.57	3.51	below the threshold	below the threshold	pKd (SCRIB_2, Q14160): 3.47; pKd (RADIL, Q96JH8): 3.63; pKd (TJP2_1, Q9UDY2): below the threshold; pKd (DLG2_3, Q15700): below the threshold; pKd (GRASP, Q7Z6J2): below the threshold; pKd (MPDZ_10, O75970): 3.51; pKd (DFNB31_2, Q9P202): below the threshold; pKd (FRMPD1, Q5SYB0): below the threshold
